Experimental data as given in article PMC2788870.

Molecular target: His6-HPr (B. subtilis) (UniProt P08877)
Assay: pull-down

Chain of UniProt P08877 (P08877 whole entry): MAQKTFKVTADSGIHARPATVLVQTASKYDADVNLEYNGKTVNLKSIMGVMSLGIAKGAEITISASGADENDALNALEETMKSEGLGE

GST-HBD (from UniProt O31522 403-515) (domain or fragment)
stoichiometry N: 1
